Results: US10889629B2, “Transfected T-cells and T-cell receptors for use in immunotherapy against cancers” (IMMATICS BIOTECHNOLOGIES GMBH, priority 2016, dated 2021)
Entries after “also recorded” stand apart in the source; their conditions may differ.

What was measured:
HLA-A*0201 molecule = HLA-A*0201 molecule (Homo sapiens, UniProt P04439, D140Y/D185E/D98H/E176V/E277Q/G131W/G231S/I119V/I121R/I166T/I218V/L300P/L318F/N151K/N90K/P208A/P217A/Q86G/Q94H/R138H/R169H/T345S); details: cited from earlier work
[1] = test system: HLA-A*0201-positive PBMCs and HLA-A*0201/Kb transgenic mice; details: in vitro from PBMCs and in HLA-A*0201/Kb transgenic mice; cited from earlier work
MHC/MAG-003 complex = target: T1, MHC/MAG-003 complex (Homo sapiens, UniProt P04439+P43358, D140Y/D185E/D98H/E176V/E277Q/G131W/G231S/I119V/I121R/I166T/I218V/L300P/L318F/N151K/N90K/P208A/P217A/Q86G/Q94H/R138H/R169H/T345S); test: IFN-γ release assay: TCR-RNA-electroporated CD8+ T-cells co-incubated with peptide-loaded target cells; type: cell-based
T1 construct: endogenous in cells
Description: In another aspect, to obtain T-cells expressing TCRs of the present description, TCR RNAs were synthesized by techniques described in the art, e.g., in vitro transcription systems. The in vitro-synthesized TCR RNAs were then introduced into primary CD8+ T-cells obtained from healthy donors by electroporation to re-express tumor specific TCR-alpha and/or TCR-beta chains.
To determine specificity and affinity of TCRs, the transformed CD8+ T-cells were co-incubated with MAG-003-loaded target cells or with target cells loaded with homologous but unrelated peptide RABGAP1L-001 (SEQ ID NO:91), AXIN1-001 (SEQ ID NO:92), ANO5-001 (SEQ ID NO:93), TPX2-001 (SEQ ID NO:94), SYNE3-001 (SEQ ID NO:95), MIA3-001 (SEQ ID NO:96), HERC4-001 (SEQ ID NO:97), PSME2-001 (SEQ ID NO:98), HEATR5A-001 (SEQ ID NO:99) or CNOT1-003 (SEQ ID NO:100) or control peptide NYESO1-001 (SEQ ID NO:101), followed by IFN-γ release assay. Unloaded target cells and CD8+ T-cells alone served as controls. IFN-γ secretion from CD8+ T-cells is indicative of T-cell activation with cytotoxic activity.
As shown in FIGS. 5-7 all primary CD8+ T-cells transformed with TCRs of the present disclosure, after co-incubation with MAG-003-loaded target cells, released much higher levels of IFN-γ than that stimulated by unrelated peptide-loaded target cells, and the controls.

MHC/MAG-003 tetramer = MHC/MAG-003 tetramer (Homo sapiens, UniProt P04439+P43358, D140Y/D185E/D98H/E176V/E277Q/G131W/G231S/I119V/I121R/I166T/I218V/N151K/N90K/P208A/P217A/Q86G/Q94H/R138H/R169H); test: Tetramer staining of TCR-RNA-electroporated CD8+ T-cells, MHC/MAG-003 tetramer; type: binding
Excerpt: (§1) FIG. 8 show MHC/MAG-003 tetramer or MHC/NYESO1-001 tetramer staining of CD8+ T-cells electroporated with alpha and beta chain RNA of TCRs R7P1 D5, R20P1H7 and R10P2G12 (Table 2), respectively. CD8+ T-cells electroporated with RNA of 1G4 TCR that specifically binds to MHC/NYESO1-001 complex and mock electroporated CD8+ T-cells served as controls.
(§2) T-cell activation was further confirmed using a tetramer staining technique to detect MHC/MAG-003-binding activated cytotoxic T-cells. As shown in FIG. 8 and Table 11, a higher percentage of TCR-expressing CD8+ T-cells were stained positive fluorescent-labeled MHC/MAG-003 tetramer than that with MHC/NYESO1-001 control tetramer or mock control. […] The alpha and beta chains of TCR 1G4 are shown in SEQ ID NO:89 and 90, respectively: […]

MHC/NYESO1-001 tetramer = test: Tetramer staining of TCR-RNA-electroporated CD8+ T-cells, MHC/NYESO1-001 control tetramer; type: binding, human
Excerpt: as §1, §2

[2] = test system: A-375 (human melanoma cell line, positive for HLA-A2 and MAG-003 expression); test: IFNγ release, TCR-expressing CD8+ T-cells co-incubated with A-375; type: cell-based
Description: (§3) To determine efficacy of T-cells expressing TCRs described herein, primary CD8+ T-cells electroporated with RNA of the TCRs R7P1 D5, R20P1H7 and R10P2G12 were co-incubated with different human cancer cell lines, e.g., A-375 (human melanoma cell line, which is positive for HLA-A2 and MAG-003 expression), T98G (human glioblastoma cell line, which is HLA-A2-positive and MAG-003-negative), and SK-BR-3 (human breast cancer cell line, which is HLA-A2-negative and MAG-003-negative), followed by IFNγ release assay.
(§4) TCRs of interest were expressed in human T cells via RNA electroporation and the T cells were assessed for IFN-γ release after co-culture with different target cells, such as T2 cells loaded with different peptides as well as tumor cell lines and primary cells from healthy tissues. T-cell activation data are shown in absolute IFN-γ levels or a normalized way as indicated below.
(§5) Efficacy of CD8+ T cells expressing TCRs R7P1 D5, R10P2G12 and R20P1H7 was determined by T cell activation studies (IFN-γ release) using different tumor cell lines as target cells. The characterization of the safety profile of TCRs of interest was approached by testing the potential activation of TCR-expressing T cells upon co-culture with isolated primary cell types from healthy tissues and induced pluripotent stem cell (iPSC)-derived cell types from HLA-A*02-positive donors (Table 13). Cell types were selected in a manner to cover most of the critical organs like e.g. brain, heart and liver and different cell types as epithelium, endothelium or smooth muscle. Tumor cell lines were analyzed side-by-side as positive and negative controls.
(§6) Normalization Method for IFNγ Release: Meannorm(TCRoi;co)=[mean(TCRoi;co)−mean(TCRoi;effector only)]−[mean(mock;co)−mean(mock;effector only)]

[3] = test system: T98G (human glioblastoma cell line, HLA-A2-positive and MAG-003-negative); test: IFNγ release, TCR-expressing CD8+ T-cells co-incubated with T98G; type: cell-based; details: Example 4, T98G, compared with effector cell only control
Description: as §3

[4] = test system: SK-BR-3 (human breast cancer cell line, HLA-A2-negative and MAG-003-negative); test: IFNγ release, TCR-expressing CD8+ T-cells co-incubated with SK-BR-3; type: cell-based; details: Example 4, SK-BR-3, compared with effector cell only control
Description: as §3

[5] = test system: human non-small cell cancer cell line, H1755 (NCI-H1755); test: IFNγ release, TCR-expressing CD8+ T-cells co-incubated with H1755; type: cell-based; details: Example 6, NCI-H1755 expressing HLA-A*02 and MAGEA4
Description: as §3, §4, §5, §6

[6] = test system: HLA-A*02 positive cell types from healthy tissues; test: Safety: IFN-γ release upon co-culture with primary and iPSC-derived cell types from healthy tissues; type: cell-based, human; details: E:T ratio 1:1, 20 h, ELISA, normalized
Excerpt: FIG. 13 T cells transfected with RNA coding for TCR R7P1 D5, R10P2G12, R20P1H7, mock or the control TCR 1G4 (SEQ ID NO:X) were co-cultured with different primary human healthy tissue cells (see table 13 for abbreviations), the target negative tumor cell line MCF-7 and the MAGEA4- and NY-ESO1-positive cell lines A-375 and NCI-H1755. TCRs R7P1D5, R10P2G12, R20P1H7 and 1G4 expression in T cells was achieved by electroporation using an RNA vector. […] E:T ratio 1:1, 20,000 cells each, mean of IFN-γ release after 20 h from replicates is shown as measured by ELISA. Error bars indicate standard deviations. Results were normalized by subtraction of IFN-γ release from TCR-transfected T cells only and IFN-γ release due to co-culture of Target cells and T cells not expressing TCR of interest.
as §4, §5, §6
The respective CVnorm was calculated: CVnorm(TCRoi;co)=[CV(TCRoi;co)^2+CV(TCRoi;effector only)^2+CV(mock;co)^2+CV(mock;effector only)^2]^[½] TCRoi=effector cells expressing TCR of interest Mock=effector cells without exogenous TCR expression Co=effector cells co-cultured with target cells Effector only=effector cells not co-cultured Mean(norm)=mean IFNγ release (normalized) CV(norm)=coefficient of variation (normalized) Results: […]

[7] = test system: NYESO1 expressing HLA-A*02 positive tumor cell lines; test: IFN-γ release of 1G4-expressing CD8+ T cells with NYESO1 expressing tumor cell lines; type: cell-based, human; details: Example 6
Description: as §4, §5

MHC/NYESO1-001 complex = test: Activation of 1G4-transformed CD8+ T-cells by NYESO1-001-loaded target cells; type: cell-based, human

## KVLEHVVRV (listed as Homo sapiens) [MAG-003]
HLA-A*0201 molecule
  binding affinity and stability towards HLA-A*0201 molecule: potent binding affinity and stability
[1]
  induction of peptide-specific CTLs: elicits peptide-specific CTLs

## YLLEHVVRL (listed as Homo sapiens) [p286-1Y2L9L]
HLA-A*0201 molecule
  binding affinity and stability towards HLA-A*0201 molecule: potent binding affinity and stability
[1]
  induction of peptide-specific CTLs: showed the capability to induce specific CTLs

B1: R20P1H7: TCR, alpha chain SEQ ID NO:39 and beta chain SEQ ID NO:47, MAG-003-specific (protein, listed as Homo sapiens)
alpha: MEKMLECAFIVLWLQLGWLSGEDQVTQSPEALRLQEGESSSLNCSYTVSGLRGLFWYRQDPGKGPEFLFTLYSAGEEKEKERLKATLTKKESFLHITAPKPEDSATYLCAVQGENSGYSTLTFGKGTMLLVSPDIQNPDPAVYQLRDSKSSDKSVCLFTDFDSQTNVSQSKDSDVYITDKTVLDMRSMDFKSNSAVAWSNKSDFACANAFNNSIIPEDTFFPSPESSCDVKLVEKSFETDTNLNFQNLSVIGFRILLLKVAGFNLLMTLRLWSS
beta: MGPQLLGYVVLCLLGAGPLEAQVTQNPRYLITVTGKKLTVTCSQNMNHEYMSWYRQDPGLGLRQIYYSMNVEVTDKGDVPEGYKVSRKEKRNFPLILESPSPNQTSLYFCASSLGPGLAAYNEQFFGPGTRLTVLEDLKNVFPPEVAVFEPSEAEISHTQKATLVCLATGFYPDHVELSWWVNGKEVHSGVSTDPQPLKEQPALNDSRYCLSSRLRVSATFWQNPRNHFRCQVQFYGLSENDEWTQDRAKPVTQIVSAEAWGRADCGFTSESYQQGVLSATILYEILLGKATLYAVLVSALVLMAMVKRKDSRG
MHC/MAG-003 complex; CD8+ T-cells electroporated with TCR RNA, co-incubation with MAG-003-loaded target cells
  IFNγ: 200 to 900 pg/mL
MHC/MAG-003 complex; target peptide (MAG-003) titration, IFN-γ release
  EC50: ~10 nM
MHC/MAG-003 tetramer
  % MAG-003 TET-positive primary CD8+ T-cells: 5.73%
MHC/NYESO1-001 tetramer
  % NYESO1-001 TET-positive primary CD8+ T-cells: 0.87%
[2]; Example 4, A-375, HLA-A2-positive and MAG-003-positive
  IFNγ release: IFNγ release was observed
[2]; Example 6, A-375 expressing HLA-A*02 and MAGEA4
  T-cell activation (IFN-γ release): activity
[3]
  IFNγ release: basal levels of IFNγ release
[4]
  IFNγ release: basal levels of IFNγ release
[5]
  T-cell activation (IFN-γ release): activity
[6]
  T-cell activation (IFN-γ release) by healthy tissue cells: no activation was observed; also recorded: did not lead to significant TCR-mediated recognition and T-cell activation

B2: 1G4: control TCR known to bind specifically to MHC/NYESO1-001 complex; alpha and beta chains SEQ ID NO:89 and 90 (protein, listed as Homo sapiens)
alpha: METLLGLLILWLQLQWVSSKQEVTQIPAALSVPEGENLVLNCSFTDSAIYNLQWFRQDPGKGLTSLLLIQSSQREQTSGRLNASLDKSSGRSTLYIAASQPGDSATYLCAVRPTSGGSYIPTFGRGTSLIVHPYIQNPDPAVYQLRDSKSSDKSVCLFTDFDSQTNVSQSKDSDVYITDKTVLDMRSMDFKSNSAVAWSNKSDFACANAFNNSIIPEDTFFPSPESSCDVKLVEKSFETDTNLNFQNLSVIGFRILLLKVAGFNLLMTLRLWSS
beta: MSIGLLCCAALSLLWAGPVNAGVTQTPKFQVLKTGQSMTLQCAQDMNHEYMSWYRQDPGMGLRLIHYSVGAGITDQGEVPNGYNVSRSTTEDFPLRLLSAAPSQTSVYFCASSYVGNTGELFFGEGSRLTVLEDLKNVFPPEVAVFEPSEAEISHTQKATLVCLATGFYPDHVELSWWVNGKEVHSGVSTDPQPLKEQPALNDSRYCLSSRLRVSATFWQNPRNHFRCQVQFYGLSENDEWTQDRAKPVTQIVSAEAWGRADCGFTSESYQQGVLSATILYEILLGKATLYAVLVSALVLMAMVKRKDSRG
[6]
  T-cell activation (IFN-γ release) by healthy tissue cells: not towards the indicated panel of healthy tissue cells
[7]
  T-cell reactivity (IFN-γ release): reactive
MHC/NYESO1-001 complex
  T-cell activation: readily activated
